Test results taken from patent US20200239888.
Read-outs that look alike come from different tables or passages of the source.

What was measured:
[1] = molecular target: FUS(375-526)[P525L][R/S in 454-526]-NLUC-HA P525L; all Arg to Ser in 454-526 (UniProt P35637); settings: full PS, nanoBRET
[2] = molecular target: FUS(375-526)[P525L][R/S in 375-422]-NLUC-HA P525L; all Arg to Ser in 375-422 (UniProt P35637); settings: full PS, nanoBRET
[3] = molecular target: HA-NES-β23-NLUC-FUS(375-526)[P525L][R/S in 375-422 and 454-526] P525L; all Arg to Ser in 375-422 and 454-526 (UniProt P35637); settings: full PS, nanoBRET
[4] = system: HA-NES-β23-NLUC (artificial); settings: full PS, nanoBRET, control fusion
[5] = molecular target: FUS(1-526)[P525L][R/S in 375-422 and 454-526]-NLUC-FLAG P525L; all Arg to Ser in 375-422 and 454-526 (UniProt P35637); settings: nanoBRET
[6] = molecular target: NanoLuc luciferase control (NLUC-HA) (UniProt Q9GV45); settings: full PS, nanoBRET, control protein
[7] = 2'-MOE at 1-5 and 16-20, DNA at 6-15, all C 5mC
[8] = cEt at 1-5 and 16-20, DNA at 6-15, all C 5mC
[9] = 2'-F at 1-5 and 16-20, DNA at 6-15, 5mC at C8, C9, C11

## CTGCTAGCCTCTGGATTTGA [766633 (2'-MOE 5-10-5 gapmer)]
[1]; [7]
  Kd: 282 nM
[2]; [7]
  Kd: 12.4 nM
[3]; [7]
  Kd: > 1000 nM
[4]; [7]
  Kd: > 1000 nM
[5]; 2'-MOE at 1-5 and 16-20, DNA at 6-15, full PS, all C 5mC
  Kd: 1.6 nM
[6]; 2'-MOE at 1-5 and 16-20, DNA at 6-15, all C 5mC, 100 mM KOAc, 20 mM Tris pH 8.0, 1 mM EDTA, 0.01% NP-40, RT
  Kd: > 1000 nM

## CTGCTAGCCTCTGGATTTGA [766635 (cEt 5-10-5 gapmer)]
[1]; [8]
  Kd: 290 nM
[2]; [8]
  Kd: 14.3 nM
[3]; [8]
  Kd: > 1000 nM
[4]; [8]
  Kd: 950 nM
[5]; cEt at 1-5 and 16-20, DNA at 6-15, full PS, all C 5mC
  Kd: 3.7 nM
[6]; [8]
  Kd: > 1000 nM

## CUGCUAGCCUCUGGAUUUGA [JB39 (RNA, phosphodiester)]
[5]
  Kd: 248 nM

## CUGCUAGCCTCTGGAUUUGA [766637 (2'-F 5-10-5 gapmer)]
[1]; [9]
  Kd: 38.4 nM
[2]; [9]
  Kd: 1.8 nM
[3]; [9]
  Kd: 200 nM
[4]; [9]
  Kd: 345 nM
[5]; 2'-F at 1-5 and 16-20, DNA at 6-15, full PS, 5mC at C8, C9, C11
  Kd: 0.3 nM
[6]; [9]
  Kd: > 1000 nM
